Test results taken from paper PMC3463533.

How the values were obtained:
[1] = anti-V5 immunoblot of culture medium
[2] = NP-40-insoluble fraction, anti-V5 immunoblot
[3] = glycan lost, control: wild type
[4] = glycan changed form, control: untreated
[5] = glycan lost, control: untreated

Substance | expression_or_secretion [1, 3] | other: NP-40-insoluble aggregation [2, 3] | other results
Surfactant protein A2 (SP-A2): N207A | decreases | increases | 
Surfactant protein A2 (SP-A2): N207T | decreases | increases | 
Surfactant protein A2 (SP-A2): swainsonine |  |  | expression_or_secretion [1, 4]: no change; other: NP-40-insoluble aggregation [2, 4]: no change
Surfactant protein A2 (SP-A2): N207S | decreases | increases | 
Surfactant protein A2 (SP-A2): N207Q | decreases | increases | 
Surfactant protein A2 (SP-A2): tunicamycin |  |  | expression_or_secretion [1, 5]: decreases; other: NP-40-insoluble aggregation [2, 5]: increases
